The labels stand for the following.
T1: GST-TEX264 (28–313aa) (human, UniProt Q9Y6I9 28-313)
T1 construct: TEX264, cytosol-exposed domain, residues 28-313, synthetic gene; also called GST-tagged TEX264; source: E. coli Rosetta pLysS, purified (glutathione beads, SEC); not shown: GST, N-terminal, kept
T1 sequence (looked up): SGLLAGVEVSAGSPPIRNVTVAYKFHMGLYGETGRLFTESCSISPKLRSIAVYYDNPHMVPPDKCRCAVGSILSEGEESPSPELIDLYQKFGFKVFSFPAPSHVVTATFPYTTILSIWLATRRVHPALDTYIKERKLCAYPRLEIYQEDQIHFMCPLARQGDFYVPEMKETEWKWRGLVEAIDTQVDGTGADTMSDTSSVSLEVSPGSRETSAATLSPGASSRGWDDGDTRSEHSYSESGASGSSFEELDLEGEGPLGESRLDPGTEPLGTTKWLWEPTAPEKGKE

T2: CCPG1-GST (1–212aa) (human, UniProt Q9ULG6 1-212)
T2 construct: CCPG1, cytosol-exposed domain, residues 1-212, synthetic gene; also called GST-tagged CCPG1; source: E. coli Rosetta pLysS, purified (glutathione beads, SEC); not shown: GST, C-terminal, kept
T2 sequence (looked up): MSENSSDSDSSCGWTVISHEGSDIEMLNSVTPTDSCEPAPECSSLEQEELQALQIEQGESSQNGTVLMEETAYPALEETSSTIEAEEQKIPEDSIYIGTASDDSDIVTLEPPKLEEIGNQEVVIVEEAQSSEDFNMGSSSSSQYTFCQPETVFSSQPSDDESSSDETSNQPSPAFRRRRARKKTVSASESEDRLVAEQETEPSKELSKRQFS

B1: mCherry-tagged ATG13 IDR (191–517aa) (domain or fragment, UniProt O75143 191-517, looked up)
chain: INLAFMSTRQFERTPPIMGIIIDHFVDRPYPSSSPMHPCNYRTAGEDTGVIYPSVEDSQEVCTTSFSTSPPSQLSSSRLSYQPAALGVGSADLAYPVVFAAGLNATHPHQLMVPGKEGGVPLAPNQPVHGTQADQERLATCTPSDRTHCAATPSSSEDTETVSNSSEGRASPHDVLETIFVRKVGAFVNKPINQVTLTSLDIPFAMFAPKNLELEDTDPMVNPPDSPETESPLQGSLHSDGSSGGSSGNTHDDFVMIDFKPAFSKDDILPMDLGTFYREFQNPPQLSSLSIDIGAQSMAEDLDSLPEKLAVHEKNVREFDAFVETLQ
notes: also called mCh-IDR; source: E. coli Rosetta pLysS, purified (His-Trap, SEC); not shown: mCherry, N-terminal, kept
B2: GFP-tagged ATG13 IDR (191–517aa) (domain or fragment, UniProt O75143 191-517, looked up)
chain: B1 chain
notes: Addgene numbers of the GFP-ATG13 constructs are tied to the ranges by their order in the list; also called ATG13 IDR wild-type (WT); source: E. coli Rosetta pLysS, purified (glutathione beads, TEV cleavage, SEC); not shown: GST, N-terminal, cleaved; EGFP, N-terminal, kept
B3: GFP-FIP200 C-terminal region (CTR) (residues 1429–1591) (domain or fragment, UniProt Q8TDY2-2 1429-1591, looked up)
chain: ADEGRVDSAMETSMMSVQENIHMLSEEKQRIMLLERTLQLKEEENKRLNQRLMSQSMSSVSSRHSEKIAIRDFQVGDLVLIILDERHDNYVLFTVSPTLYFLHSESLPALDLKPASGASRRPWVLGKVMEKEYCQAKKAQNRFKVPLGTKFYRVKAVSWNKKV
notes: FIP200 (RB1CC1), C-terminal region with the Claw domain and a portion of the coiled-coil, residues 1429-1591; also called GFP-tagged FIP200-CTR; GFP-FIP200(CTR); source: E. coli Rosetta pLysS, purified (His-Trap, TEV cleavage, SEC); not shown: His6, N-terminal, cleaved; GFP, N-terminal, kept
B4: FUNDC1(1–50aa)-GST (domain or fragment, human, UniProt Q8IVP5 1-50, looked up)
chain: MATRNPPPQDYESDDDSYEVLDLTEYARRHQWWNRVFGHSSGPMVEKYSV
notes: FUNDC1, cytosol-exposed domain, residues 1-50; also called FUNDC1-GST; source: E. coli Rosetta pLysS, purified (glutathione beads, SEC); not shown: GST, C-terminal, kept
B5: GFP-tagged ATG13 IDR (Δ191–205aa) (domain or fragment, UniProt O75143 205-517, looked up)
chain: PPIMGIIIDHFVDRPYPSSSPMHPCNYRTAGEDTGVIYPSVEDSQEVCTTSFSTSPPSQLSSSRLSYQPAALGVGSADLAYPVVFAAGLNATHPHQLMVPGKEGGVPLAPNQPVHGTQADQERLATCTPSDRTHCAATPSSSEDTETVSNSSEGRASPHDVLETIFVRKVGAFVNKPINQVTLTSLDIPFAMFAPKNLELEDTDPMVNPPDSPETESPLQGSLHSDGSSGGSSGNTHDDFVMIDFKPAFSKDDILPMDLGTFYREFQNPPQLSSLSIDIGAQSMAEDLDSLPEKLAVHEKNVREFDAFVETLQ
notes: source: E. coli Rosetta pLysS, purified (glutathione beads, TEV cleavage, SEC); not shown: GST, N-terminal, cleaved; EGFP, N-terminal, kept
B6: GFP-tagged ATG13 (191–230aa) (peptide, UniProt O75143 191-230, looked up)
chain: INLAFMSTRQFERTPPIMGIIIDHFVDRPYPSSSPMHPCN
notes: source: E. coli Rosetta pLysS, purified (glutathione beads, TEV cleavage, SEC on S75); not shown: GST, N-terminal, cleaved; EGFP, N-terminal, kept
B7: GFP-tagged ATG13 (206–230) (peptide, UniProt O75143 206-230, looked up)
chain: PIMGIIIDHFVDRPYPSSSPMHPCN
notes: ATG13 residues 206-230; also called ATG13 IDR fragment (206–230aa); source: E. coli Rosetta pLysS, purified (glutathione beads, TEV cleavage, SEC on S75); not shown: GST, N-terminal, cleaved; EGFP, N-terminal, kept

What all share (conditions): both partners purified
One assay concerns the target T3, GST-WIPI3 (UniProt Q5MNZ6 1-344).
T3 construct: WIPI3 (WDR45B); Addgene numbers are tied to WIPI1/2/3/4 by their order in the list; also called GST-tagged WIPI3; GST-TEV-WIPI3; source: FreeStyle HEK293F cells, transfected, purified (glutathione beads, SEC); not shown: GST, N-terminal, kept
Kind of assay: microscopy-based bead assay; glutathione beads coated with GST-tagged WIPI2d or WIPI3 (5 uM), mCherry-tagged ATG13 constructs as prey; 25 mM Tris-HCl pH 7.4, 150 mM NaCl, 1 mM DTT; confocal imaging.

The next assay concerns the target T4, mCherry-WIPI3 (UniProt Q5MNZ6 1-344).
T4 construct: also called mCherry-tagged WIPI3; source: E. coli Rosetta pLysS, purified (His-Trap, SEC); not shown: mCherry, N-terminal, kept
The assay can be described thus: microscopy-based bead assay; GFP-trap agarose beads coated with GFP-tagged bait (ULK1 complex, ATG13/101, FIP200, ULK1 K46I, ATG13 IDR and its fragments or variants; 5 uM), mCherry-tagged WIPI proteins as prey; 25 mM Tris-HCl pH 7.4, 150 mM NaCl, 1 mM DTT; confocal imaging.

In another assay the target is T1, GST-TEX264 (28–313aa). Kind of assay: microscopy-based bead assay; glutathione beads coated with GST-tagged cargo receptors (5 uM), GFP-FIP200 CTR (1429-1591) as prey, 30 min; 25 mM Tris-HCl pH 7.4, 150 mM NaCl, 1 mM DTT; confocal imaging.
The next assay concerns the target T5, FKBP8-GST (1–391aa) (human, UniProt Q14318 1-391).
T5 construct: FKBP8, cytosol-exposed domain, residues 1-391, synthetic gene; also called GST-tagged FKBP8; source: E. coli Rosetta pLysS, purified (glutathione beads, SEC); not shown: GST, C-terminal, kept
Described as above.

Another assay addresses T2, CCPG1-GST (1–212aa). Described as above.
The next assay concerns the target T6, GST-FAM134C (250–466aa) (human, UniProt Q86VR2 250-466).
T6 construct: FAM134C, cytosol-exposed domain, residues 250-466, synthetic gene; also called GST-tagged FAM134C; source: E. coli Rosetta pLysS, purified (glutathione beads, SEC); not shown: GST, N-terminal, kept
Described as above.

The target in the next assay is T7, BCL2L13(1–465aa)-GST (human, UniProt Q9BXK5 1-465).
T7 construct: BCL2L13, cytosol-exposed domain, residues 1-465; also called BCL2L13-GST; source: E. coli Rosetta pLysS, purified (glutathione beads, SEC); not shown: GST, C-terminal, kept
T7 sequence (Q9BXK5 1-465): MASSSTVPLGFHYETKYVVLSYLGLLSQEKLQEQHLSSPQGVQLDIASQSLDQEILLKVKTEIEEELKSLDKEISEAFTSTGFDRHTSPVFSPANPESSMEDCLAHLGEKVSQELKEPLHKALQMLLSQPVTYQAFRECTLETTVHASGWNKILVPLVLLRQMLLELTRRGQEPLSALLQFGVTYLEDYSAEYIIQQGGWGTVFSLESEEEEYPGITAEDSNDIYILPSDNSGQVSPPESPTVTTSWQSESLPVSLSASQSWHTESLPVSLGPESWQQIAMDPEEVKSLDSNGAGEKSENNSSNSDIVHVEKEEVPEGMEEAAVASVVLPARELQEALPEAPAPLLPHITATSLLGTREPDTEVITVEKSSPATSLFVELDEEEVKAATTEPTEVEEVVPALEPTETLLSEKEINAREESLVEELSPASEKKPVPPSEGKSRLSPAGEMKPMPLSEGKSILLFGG
Described as above.

Assay [1] concerns the target B3. The assay can be described thus: microscopy-based bead assay; as a2 (GFP-FIP200 CTR prey) with kinases TBK1, MBP-ULK1, CK2 or Src (Y530F) and 10 mM MgCl2, 100 uM ATP.

T4 sequence (Q5MNZ6 whole entry): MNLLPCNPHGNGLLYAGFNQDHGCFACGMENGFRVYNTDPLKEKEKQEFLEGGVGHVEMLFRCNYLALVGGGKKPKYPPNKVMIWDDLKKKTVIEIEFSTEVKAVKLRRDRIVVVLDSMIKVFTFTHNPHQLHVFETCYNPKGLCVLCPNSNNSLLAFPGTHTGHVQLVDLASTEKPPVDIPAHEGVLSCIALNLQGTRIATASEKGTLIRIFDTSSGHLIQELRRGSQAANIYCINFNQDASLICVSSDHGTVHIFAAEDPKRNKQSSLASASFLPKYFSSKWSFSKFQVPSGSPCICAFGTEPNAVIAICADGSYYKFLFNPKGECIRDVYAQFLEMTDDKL
T5 sequence (Q14318 1-391): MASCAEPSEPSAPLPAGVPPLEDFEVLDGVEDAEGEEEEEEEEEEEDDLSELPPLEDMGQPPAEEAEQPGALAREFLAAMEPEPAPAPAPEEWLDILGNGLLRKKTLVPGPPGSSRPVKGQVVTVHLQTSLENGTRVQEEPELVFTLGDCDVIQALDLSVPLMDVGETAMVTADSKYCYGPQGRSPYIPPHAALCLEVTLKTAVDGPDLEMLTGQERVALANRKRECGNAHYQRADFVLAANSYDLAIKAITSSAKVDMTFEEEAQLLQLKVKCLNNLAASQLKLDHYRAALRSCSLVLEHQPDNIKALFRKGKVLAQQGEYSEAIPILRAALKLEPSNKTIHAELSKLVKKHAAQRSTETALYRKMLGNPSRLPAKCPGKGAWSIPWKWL
T3 sequence (Q5MNZ6 whole entry): as the sequence (Q5MNZ6 whole entry) above
T6 sequence (Q86VR2 250-466): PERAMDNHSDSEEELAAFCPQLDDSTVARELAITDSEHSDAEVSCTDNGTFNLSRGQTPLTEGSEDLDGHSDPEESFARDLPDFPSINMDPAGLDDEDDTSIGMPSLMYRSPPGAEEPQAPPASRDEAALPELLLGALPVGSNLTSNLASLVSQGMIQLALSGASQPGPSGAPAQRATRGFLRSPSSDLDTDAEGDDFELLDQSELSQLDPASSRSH

As to B1, the binding result with GST-WIPI3 is listed as “binds”. Consider B2, for which the binding result with mCherry-WIPI3 is given as “binds”. For B3, the binding result with GST-TEX264 (28–313aa), with FKBP8-GST (1–391aa), in the assay with CCPG1-GST (1–212aa), in the assay with GST-FAM134C (250–466aa) and with BCL2L13(1–465aa)-GST was “binds” in each case. In the case of B4, the binding result in assay [1] is on record as “binds”.

For the molecule B5, the binding result with mCherry-WIPI3 was “binds”.

As for B6, in the assay with mCherry-WIPI3, the binding result is recorded as “binds”. On the same count and under the same terms, then B7, with “binds”.

The values above are taken from paper doi:10.1101/2024.08.28.609967 (bioRxiv, 2024).
